These are literature values, as cited in article PMC4712107.

For data set [1], the target named is CRF-BP (Homo sapiens) (UniProt P24387).
For data set [2] the target is unchanged. The source holds these as a separate data set.

Where two headings read alike, the source gives them in different places.

Sequence of UniProt P24387 (P24387 25-322): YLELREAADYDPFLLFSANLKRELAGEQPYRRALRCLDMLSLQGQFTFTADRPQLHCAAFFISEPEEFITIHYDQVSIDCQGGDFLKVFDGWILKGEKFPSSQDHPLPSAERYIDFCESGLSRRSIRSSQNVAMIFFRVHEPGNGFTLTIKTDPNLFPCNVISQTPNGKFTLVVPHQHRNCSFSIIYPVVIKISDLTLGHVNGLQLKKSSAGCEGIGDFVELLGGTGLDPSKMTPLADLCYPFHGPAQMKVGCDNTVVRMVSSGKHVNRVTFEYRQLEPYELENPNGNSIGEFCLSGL

In the case of CRF (from UniProt P06850), the Kd with CRF-BP (Homo sapiens) [1] is under 1 nM. As to Urocortin 1 (from UniProt P55089), the Kd in the data set with CRF-BP (Homo sapiens) [2] was under 1 nM.

The Kd is a measure of binding affinity in units of concentration.
